Target: Thermococcus kodakarensis RNA polymerase (Thermococcus kodakarensis)

elongation rate on histone-bound (HTkB) templates, against no factor: 1.5 fold
B1: Spt4-Spt5 complex (complex)
chain 1: MAKERACRHCHYITTEDRCPVCGSRDLSDDWFDLVIVLDVESRIAKKLRESIPEAAKVPGKYAIRVR
chain 2: MAEGKIFTVSVTVGQETTTANLIYSKAKTYNLPLYAILSPSKVKGYIFIEAPNKSAVEEAIRGIRHAKRVLPGEIPFSEIEHFLEEKPAVSGFEPGDIVELIAGPFKGEKAKVVRVDESKDEIVVELVSSVVPIPVTVRGEYVRLISKRQKE

Source: article PMC6417941
